Experimental data taken from patent publication US6407214 (CELLTECH THERAPEUTICS, dated 2002).
Several values for one entry are separate records, joined by “and”; a condition that tells them apart may be missing. Equal values may be shown once. Values belong to the binder of their own block, whether it stands above or below them.

Columns and labels:
[1] = molecular target: T1, Lectin/EGF fragment from E-selectin (UniProt P16581 22-178, limits assumed); experiment: BIAcore SPR, antibody immobilised, lectin/EGF fragment in fluid phase; average
T1 construct: domain: Lectin/EGF fragment; Soluble fragment; also called lectin/EGF fragment of E-selectin
T1 sequence (looked up): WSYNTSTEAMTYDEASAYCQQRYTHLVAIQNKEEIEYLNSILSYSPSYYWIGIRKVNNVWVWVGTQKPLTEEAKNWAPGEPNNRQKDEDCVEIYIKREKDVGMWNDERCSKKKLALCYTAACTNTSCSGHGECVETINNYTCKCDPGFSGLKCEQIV
Procedure: (§1) The affinity of both mouse and CDR-grafted ENA-2 for E-selectin were measured using a BIAcore TH biosensor (Pharmacia). This instrument combines miniaturised fluid delivery with an optical detection system based on surface plasmon resonance, to monitor protein interactions in real time (Chaiken et al, (1991) Anal. Biochem 201 197–210). The antibodies were immobilised at similar densities onto the sensor surface and the lectin/EGF fragment of E-selectin used as antigen in the fluid phase.
(§2) Assays of both antibodies were run at the same time using the same dilutions of antigen. The KD measurements are given below. KD Measurements

[2] = molecular target: T1, Lectin/EGF fragment from E-selectin; experiment: BIAcore SPR, antibody immobilised, lectin/EGF fragment in fluid phase; duplicate
Procedure: as §1, §2

Kd [1]: 5.43 nM | Kd [2]: 5.38 nM and 5.48 nM
B1: mouse ENA-2 (antibody, V domains shown)
VH: QVQLQQSGTELVRPGASVTLSCKASGYTFTDHEMHWVKQTPVLGLEWIGTIDPETGGTAYNQKFKGKATLTADKSSTTAYMDLRGLTSEDSAVFYCTVLRMDYWGQGTSLTVSA
VL: DIVMTQSPSSLTVTAGEKVTMRCKSSQSLLNSGNQQNYLTWYQQKPGQPPKLLIYWASTRESGVPDRFTGSGSGTDFTLTISSVQTEDLAVYYCQNDYDYPLTFGAGTKLEIKR
notes: Mouse IgG1/kappa whole antibody purified from hybridoma supernatant; The entries may include leader residues; also called mENA-2; murine ENA-2

Kd [1]: 7.98 nM | Kd [2]: 7.8 nM and 8.17 nM
B2: CDR-grafted ENA-2 (hENA-2 wt) (antibody, V domains shown)
VH: QVQLVQSGAEVKKPGSSVKVSCKASGYTFTDHEMHWVRQAPGQGLEWIGTIDPETGGTAYNQKFKGRATLTADKSTNTAYMDLSSLRSEDTAVYYCTVLRMDYWGQGTLVTVSS
VL: DIQMTQSPSTLSASVGDRVTITCKSSQSLLNSGNQQNYLTWYQQKPGKAPKLLIYWASTRESGVPDRFTGSGSGTDFTLTISSLQPDDFAVYYCQNDYDYPLTFGQGTKVEIKR
notes: CDR-grafted on human Eu frameworks, with a human kappa light chain (pENA204); Both gamma 1 (pENA212) and gamma 4 (pENA206) heavy chain vectors were made; The FcRI comparison uses the gamma 4 wild type; also called hEN2; gamma 4
